The values that follow come from paper PMC5101480 (Scientific Reports, 2016).

Assay [1] is described as follows: 1H-15N heteronuclear NOE of Rpn13_260-407, free and SGTA_TPR-bound. Details: species or system human. The conditions noted are these: 350 μM 15N-labelled Rpn13_260-407, 700 MHz, four second saturation transfer or control period. The procedure: To study the dynamic properties of free and SGTA_TPR-bound Rpn13_260-407, ^1H- ^15N heteronuclear NOE experiments were carried out with a four second saturation transfer or control period. […] The average heteronuclear NOE enhancement value for Rpn13 residues Asp 403 to Asp 407 in the free and SGTA_TPR-bound state were −0.71 and 0.48, respectively, thus indicating the transition of the Rpn13 extreme C-terminal pentapeptide region to a more ordered state upon binding to SGTA_TPR (Fig. 2C).
where Δδ1H and Δδ15N are the chemical shift differences for the same amide in its free and bound state (δfree−δbound) and for proton and nitrogen chemical shift values respectively. CSP results were mapped on to the SGTA_TPR crystal structure (PDB code 2VYI) using PyMOL. ^1H-^15N heteronuclear NOE experiments were performed with a four second saturation transfer or control period at 700 MHz. Sample concentrations of ^15N-labelled Rpn13_260-407 were maintained at 350 μM both in its free and bound state with unlabelled SGTA_TPR at a 1:1 molar ratio.

For assay [2], the system named is K160E/R164E double mutant SGTA_TPR. Description: Reciprocal NMR CSP titration, Rpn13_260-407 with K160E/R164E double mutant SGTA_TPR. The class given is binding, human. The conditions noted are these: up to 6-fold molar excess of Rpn13_260-407 and vice versa; pH 6.0, 25 °C. The source says: The ‘two-carboxylate clamp’ mode of binding is a well-characterised mechanism of molecular recognition by TPR domains in the context of their binding to the conserved C-terminal IEEVD and MEEVD motifs of Hsp70 and Hsp90 chaperones, respectively. It is known that conserved residues present on the concave surface of the TPR domain form a positively charged region within this groove that clamp, the two carboxylate groups of the terminal aspartate (Fig. 3D). […]
Protein samples at concentrations between 300 μM and 1 mM were prepared in 10% D2O (Sigma Aldrich), 10 mM potassium phosphate pH 6.0, 100 mM NaCl and 250 μM TCEP buffer (with 10 μM DSS for proton chemical shift referencing). […] All NMR spectra were processed with TopSpin and analysed with CcpNMR Analysis[35]. Proteins used for NMR titrations were dialysed overnight against the same buffer (10 mM potassium phosphate pH 6.0, 100 mM NaCl and 250 μM TCEP) and mixed in different molar ratios, with the concentration of the labelled protein maintained constant. ^1H-^15N HSQC experiments were recorded for each titration point at 25 °C. Chemical shift perturbation (CSP) values were calculated for each amide signal using the following formula: […]

B1: Rpn13_260-407: Rpn13 C-terminal domain (residues 260–407), human, expressed in E. coli (protein)
chain: QPIQLSDLQSILATMNVPAGPAGGQQVDLASVLTPEIMAPILANADVQERLLPYLPSGESLPQTADEIQNTLTSPQFQQALGMFSAALASGQLGPLMCQFGLPAEAVEAANKGDVEAFAKAMQNNAKPEQKEGDTKDKKDEEEDMSLD
modifications: left off: thioredoxin A (TxA), N-terminal, cleaved | His6, N-terminal, cleaved
notes: Rpn13 C-terminal domain (residues 260–407), human, expressed in E. coli
For the molecule B1, the “average heteronuclear NOE enhancement value, residues Asp 403 to Asp 407” value was 0.48 in assay [1] (SGTA_TPR-bound state, 1:1 molar ratio) and −0.71 in assay [1] (free state). Further, the “CSP with K160E/R164E SGTA_TPR, result in words” value in assay [2] was “disruption of the SGTA_TPR-Rpn13_260-407 interaction”.
